# FireProtDB (doi:10.1021/bi00005a026)
# B1: Subtilisin-chymotrypsin inhibitor-2A wild type, P01053 (protein)
# chain: MSSVEKKPEGVNTGAGDRHNLKTEWPELVGKSVEEAKKVILQDKPEAQIIVLPVGTIVTMEYRIDRVRLFVDKLDNIAQVPRVG
# Conditions: Hordeum vulgare; pH 6.3; Thermal; Fluorescence; phosphate 10 mM; reversible: yes; whole UniProt chain shown
protein,measurement,value
B1,Tm,46.6 °C
same,unfolding enthalpy (van 't Hoff),34.1 kcal/mol
